Measurements: article PMC9328315, “Streptococcus pneumoniae binds collagens and C1q via the SSURE repeats of the PfbB adhesin” (Molecular Microbiology, 2022)

Key:
Test in all cases: ELISA; titration: wells sensitized with 1 μg/ml of collagen type I, II, III, IV, VI or C1q; increasing concentrations of C‐SSURE or N‐SSURE (0,016–10 μg/ml), detected with anti‐His antibody; dissociation constants calculated from the titration curves (Figure 3c,d)
[1] = target: type III collagen (calf (from calfskin)) (UniProt P04258)
[2] = target: complement component C1q (human) (UniProt P02745)
[3] = target: type I collagen (calf (from calfskin)) (UniProt P02453)
[4] = target: human type IV collagen (human, UniProt P02462 173-1669; P08572 184-1712); settings: both partners purified
[5] = target: human type VI collagen (human, UniProt P12109 20-1028; P12110 21-1019; P12111 26-3177); settings: both partners purified

Sequence of type I collagen (calf (from calfskin)) (P02453 162-1217, chain 1 of 2): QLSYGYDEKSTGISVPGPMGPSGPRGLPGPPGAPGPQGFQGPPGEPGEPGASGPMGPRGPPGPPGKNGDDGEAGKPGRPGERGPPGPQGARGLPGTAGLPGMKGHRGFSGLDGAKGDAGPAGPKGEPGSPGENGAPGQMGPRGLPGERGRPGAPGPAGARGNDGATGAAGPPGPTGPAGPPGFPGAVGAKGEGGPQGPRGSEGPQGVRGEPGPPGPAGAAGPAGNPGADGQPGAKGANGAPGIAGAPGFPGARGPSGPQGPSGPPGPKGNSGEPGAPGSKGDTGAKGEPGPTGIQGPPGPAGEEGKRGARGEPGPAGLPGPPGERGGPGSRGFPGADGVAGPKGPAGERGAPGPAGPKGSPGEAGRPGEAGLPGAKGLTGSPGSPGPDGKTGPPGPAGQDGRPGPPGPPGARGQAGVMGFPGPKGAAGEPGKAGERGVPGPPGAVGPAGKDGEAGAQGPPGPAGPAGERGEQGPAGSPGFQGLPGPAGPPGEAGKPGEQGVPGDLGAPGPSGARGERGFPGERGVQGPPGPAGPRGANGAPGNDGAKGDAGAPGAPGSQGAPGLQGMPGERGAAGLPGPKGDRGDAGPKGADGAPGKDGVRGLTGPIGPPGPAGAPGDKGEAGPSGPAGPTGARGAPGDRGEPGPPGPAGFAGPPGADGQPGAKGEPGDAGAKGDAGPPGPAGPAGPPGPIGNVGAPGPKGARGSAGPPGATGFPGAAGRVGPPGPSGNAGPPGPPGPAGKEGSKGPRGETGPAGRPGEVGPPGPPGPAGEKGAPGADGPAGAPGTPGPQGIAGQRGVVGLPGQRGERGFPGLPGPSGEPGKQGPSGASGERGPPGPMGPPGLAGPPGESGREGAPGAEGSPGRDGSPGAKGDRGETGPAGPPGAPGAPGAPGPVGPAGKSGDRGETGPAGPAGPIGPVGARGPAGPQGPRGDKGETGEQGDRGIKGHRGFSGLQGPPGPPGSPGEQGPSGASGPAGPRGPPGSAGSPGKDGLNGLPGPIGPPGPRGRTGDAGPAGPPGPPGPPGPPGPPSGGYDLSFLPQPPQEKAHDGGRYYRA
Sequence of type I collagen (calf (from calfskin)) (P02465 80-1117, chain 2 of 2, further chain): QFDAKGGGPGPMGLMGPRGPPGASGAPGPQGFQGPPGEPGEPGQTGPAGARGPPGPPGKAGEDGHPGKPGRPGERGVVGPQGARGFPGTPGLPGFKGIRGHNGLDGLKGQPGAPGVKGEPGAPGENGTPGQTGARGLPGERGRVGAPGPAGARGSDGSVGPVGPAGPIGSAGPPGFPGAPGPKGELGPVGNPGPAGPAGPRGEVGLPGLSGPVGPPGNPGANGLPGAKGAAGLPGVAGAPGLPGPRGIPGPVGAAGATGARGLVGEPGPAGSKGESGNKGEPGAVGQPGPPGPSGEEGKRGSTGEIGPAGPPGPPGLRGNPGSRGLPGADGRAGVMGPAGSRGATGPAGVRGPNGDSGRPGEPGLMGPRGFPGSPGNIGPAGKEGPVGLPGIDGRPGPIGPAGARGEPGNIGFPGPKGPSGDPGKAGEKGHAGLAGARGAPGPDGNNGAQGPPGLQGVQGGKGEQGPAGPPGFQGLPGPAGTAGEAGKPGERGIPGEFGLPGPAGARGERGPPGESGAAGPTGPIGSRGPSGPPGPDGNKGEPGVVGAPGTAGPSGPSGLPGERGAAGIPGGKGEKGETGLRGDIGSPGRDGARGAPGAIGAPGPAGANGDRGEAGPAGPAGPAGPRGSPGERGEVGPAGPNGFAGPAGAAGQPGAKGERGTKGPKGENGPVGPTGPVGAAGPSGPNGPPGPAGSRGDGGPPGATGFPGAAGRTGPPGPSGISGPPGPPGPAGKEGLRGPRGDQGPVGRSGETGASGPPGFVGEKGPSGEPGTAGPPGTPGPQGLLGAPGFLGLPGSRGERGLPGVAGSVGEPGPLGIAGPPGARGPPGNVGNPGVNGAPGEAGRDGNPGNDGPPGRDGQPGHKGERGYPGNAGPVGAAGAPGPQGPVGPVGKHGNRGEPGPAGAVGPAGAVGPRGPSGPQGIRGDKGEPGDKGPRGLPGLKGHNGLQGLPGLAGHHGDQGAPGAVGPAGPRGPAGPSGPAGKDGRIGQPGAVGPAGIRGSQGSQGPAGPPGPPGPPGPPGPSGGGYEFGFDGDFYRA
Sequence of human type IV collagen (P02462 173-1669, chain 1 of 2): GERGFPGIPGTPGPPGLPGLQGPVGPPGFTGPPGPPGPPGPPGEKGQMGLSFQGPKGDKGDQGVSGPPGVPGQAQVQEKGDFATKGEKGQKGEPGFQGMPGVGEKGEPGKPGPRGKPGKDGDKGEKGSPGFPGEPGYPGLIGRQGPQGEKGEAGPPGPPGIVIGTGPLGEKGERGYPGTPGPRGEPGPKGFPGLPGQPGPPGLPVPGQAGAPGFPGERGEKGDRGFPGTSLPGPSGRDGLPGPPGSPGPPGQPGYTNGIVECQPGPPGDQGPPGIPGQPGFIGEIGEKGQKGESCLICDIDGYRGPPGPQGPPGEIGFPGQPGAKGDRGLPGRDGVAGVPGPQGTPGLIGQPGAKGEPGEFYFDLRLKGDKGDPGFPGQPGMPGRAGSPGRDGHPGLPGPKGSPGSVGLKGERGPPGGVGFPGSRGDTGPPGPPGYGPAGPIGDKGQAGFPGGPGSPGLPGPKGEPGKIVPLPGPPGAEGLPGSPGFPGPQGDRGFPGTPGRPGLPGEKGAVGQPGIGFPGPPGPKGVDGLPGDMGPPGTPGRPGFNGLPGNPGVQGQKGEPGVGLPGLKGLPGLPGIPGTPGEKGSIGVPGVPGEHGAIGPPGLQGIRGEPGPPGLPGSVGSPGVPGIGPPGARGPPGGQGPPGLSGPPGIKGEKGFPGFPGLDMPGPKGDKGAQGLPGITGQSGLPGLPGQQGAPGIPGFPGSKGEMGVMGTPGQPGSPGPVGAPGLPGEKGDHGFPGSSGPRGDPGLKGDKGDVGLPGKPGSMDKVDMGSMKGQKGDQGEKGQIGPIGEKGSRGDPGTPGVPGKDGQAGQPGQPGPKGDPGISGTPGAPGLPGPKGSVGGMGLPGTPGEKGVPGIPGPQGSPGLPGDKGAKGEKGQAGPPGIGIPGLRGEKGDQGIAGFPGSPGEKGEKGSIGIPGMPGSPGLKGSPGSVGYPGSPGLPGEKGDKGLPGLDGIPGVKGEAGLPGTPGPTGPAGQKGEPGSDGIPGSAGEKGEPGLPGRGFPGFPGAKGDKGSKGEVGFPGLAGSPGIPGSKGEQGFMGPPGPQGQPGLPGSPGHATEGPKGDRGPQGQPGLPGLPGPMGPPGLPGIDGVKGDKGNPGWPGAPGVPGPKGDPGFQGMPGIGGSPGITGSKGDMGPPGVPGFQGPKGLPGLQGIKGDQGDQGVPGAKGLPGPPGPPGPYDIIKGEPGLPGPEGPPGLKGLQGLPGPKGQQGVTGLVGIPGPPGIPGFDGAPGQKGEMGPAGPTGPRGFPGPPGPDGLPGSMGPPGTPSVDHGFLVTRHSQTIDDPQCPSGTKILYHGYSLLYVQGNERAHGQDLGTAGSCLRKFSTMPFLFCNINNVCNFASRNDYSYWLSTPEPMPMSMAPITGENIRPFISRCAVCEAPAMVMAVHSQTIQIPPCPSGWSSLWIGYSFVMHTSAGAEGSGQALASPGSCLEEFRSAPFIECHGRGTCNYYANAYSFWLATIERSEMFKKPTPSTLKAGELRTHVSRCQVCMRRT
Sequence of human type IV collagen (P08572 184-1712, chain 2 of 2): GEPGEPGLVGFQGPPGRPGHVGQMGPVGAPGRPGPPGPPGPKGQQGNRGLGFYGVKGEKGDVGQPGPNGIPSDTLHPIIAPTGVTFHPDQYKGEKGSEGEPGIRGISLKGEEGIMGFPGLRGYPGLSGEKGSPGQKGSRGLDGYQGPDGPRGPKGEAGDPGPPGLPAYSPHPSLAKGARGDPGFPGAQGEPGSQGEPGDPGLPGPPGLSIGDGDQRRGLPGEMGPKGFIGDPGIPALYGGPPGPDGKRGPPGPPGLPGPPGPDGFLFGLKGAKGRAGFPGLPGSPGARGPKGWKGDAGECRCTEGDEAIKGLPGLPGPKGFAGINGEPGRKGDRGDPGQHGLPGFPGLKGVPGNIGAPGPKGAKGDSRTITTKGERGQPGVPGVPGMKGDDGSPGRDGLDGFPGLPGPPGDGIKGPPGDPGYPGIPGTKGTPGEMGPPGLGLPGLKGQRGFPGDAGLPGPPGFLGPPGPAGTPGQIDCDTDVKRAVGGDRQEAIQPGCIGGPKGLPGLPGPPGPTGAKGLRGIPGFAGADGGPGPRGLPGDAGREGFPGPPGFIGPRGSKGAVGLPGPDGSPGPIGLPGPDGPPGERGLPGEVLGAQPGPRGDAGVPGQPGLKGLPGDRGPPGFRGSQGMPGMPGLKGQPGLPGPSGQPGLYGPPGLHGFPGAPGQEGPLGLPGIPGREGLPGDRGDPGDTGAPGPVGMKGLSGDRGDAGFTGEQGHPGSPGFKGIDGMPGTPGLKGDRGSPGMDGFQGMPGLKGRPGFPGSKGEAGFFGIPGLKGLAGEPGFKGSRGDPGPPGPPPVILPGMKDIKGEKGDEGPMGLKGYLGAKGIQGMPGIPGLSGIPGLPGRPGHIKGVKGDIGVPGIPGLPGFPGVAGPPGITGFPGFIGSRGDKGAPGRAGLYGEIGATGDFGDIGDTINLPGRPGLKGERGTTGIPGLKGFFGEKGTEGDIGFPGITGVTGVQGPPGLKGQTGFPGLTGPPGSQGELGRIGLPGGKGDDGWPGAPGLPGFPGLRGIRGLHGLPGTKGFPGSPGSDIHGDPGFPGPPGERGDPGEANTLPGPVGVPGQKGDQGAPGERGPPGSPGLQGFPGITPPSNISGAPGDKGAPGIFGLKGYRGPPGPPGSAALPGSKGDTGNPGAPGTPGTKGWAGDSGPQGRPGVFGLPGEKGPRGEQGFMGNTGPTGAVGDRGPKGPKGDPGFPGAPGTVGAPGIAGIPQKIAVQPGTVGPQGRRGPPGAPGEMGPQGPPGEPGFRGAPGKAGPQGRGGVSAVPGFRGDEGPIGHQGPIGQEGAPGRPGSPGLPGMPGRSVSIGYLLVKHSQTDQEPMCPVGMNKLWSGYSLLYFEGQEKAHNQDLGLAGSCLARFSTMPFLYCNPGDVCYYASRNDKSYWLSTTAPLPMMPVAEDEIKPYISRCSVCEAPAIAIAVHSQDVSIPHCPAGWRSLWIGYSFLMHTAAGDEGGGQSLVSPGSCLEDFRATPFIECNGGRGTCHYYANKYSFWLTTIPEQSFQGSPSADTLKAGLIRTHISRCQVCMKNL

| Molecule | Kd [1] | Kd [2] | Kd [3] | Kd [4] | Kd [5] |
| --- | --- | --- | --- | --- | --- |
| C‐SSURE, recombinant polyhistidine‐tagged polypeptide encompassing amino acids 902–1053 (C‐terminal SSURE domain) of the PfbB protein (domain or fragment) | 1160 nM | 5210 nM | 1720 nM | – | – |
| N‐SSURE, recombinant polyhistidine‐tagged polypeptide encompassing amino acids 144–293 (N‐terminal SSURE domain) of the PfbB protein (domain or fragment, also called N‐terminal repeat; SSURE 1) AETTPEQVKGGVKENTKDSIDVPAAYLEKAEGKGPFTAGVNQVIPYELFAGDGMLTRLLLKASDNAPWSDNGTAKNPALPPLEGLTKGKYFYEVDLNGNTVGKQGQALIDQLRANGTQTYKATVKVYGNKDGKADLTNLVATKNVDININ | – | – | – | 1580 ± 100 nM | 1200 ± 300 nM |
